These results are taken from publication PMC8699947, “Study of ALDH from Thermus thermophilus—Expression, Purification and Characterisation of the Non-Substrate Specific, Thermophilic Enzyme Displaying Both Dehydrogenase and Esterase Activity” (Cells, 2021).

What is called stoichiometry N is the number of molecules, sites or subunits per partner or assembly. Usually Km stands for the concentration of substrate that gives half-maximal velocity. As a reminder, the Vmax is the top rate of the reaction or transport when substrate is in excess. Usually kcat stands for the number of substrate molecules converted per active site and unit of time at saturation.

For series [1], the target named is ALDHTt, aldehyde dehydrogenase from Thermus thermophilus (Thermus thermophilus). The series can be described thus: SEC; HiLoad 16/60 Superdex 200 pg, 50 mM Tris-HCl pH 7.5, 5 mM β-mercaptoethanol, 150 mM NaCl, flow rate 1 mL/min; last step of the purification; no calibration told. (SEC sorts molecules by how far they enter the pores of the column.)
Substrate in series [2]: CCCCCC=O
As to the kind of experiment: purified protein. The following applies: 2 mM NAD+, 10 mM potassium phosphate pH 8, 50 °C.

Substrate in series [3]: NC(=O)c1ccc[n+]([C@@H]2O[C@H](COP(=O)(O)OP(=O)(O)OC[C@H]3O[C@@H](n4cnc5c(N)ncnc54)[C@H](O)[C@@H]3O)[C@@H](O)[C@H]2O)c1
The series can be described thus: purified protein. In kind it is biochemical, Thermus thermophilus. The note with it: 2 mM hexanal, 10 mM potassium phosphate pH 8, 50 °C, varied: cofactor.

Substrate in series [4]: O=Cc1ccc(C=O)cc1
The series can be described thus: purified protein. The following applies: 2 mM NAD+, 10 mM potassium phosphate pH 8, 50 °C. It counts as biochemical, Thermus thermophilus.

Substrate in series [5]: O=Cc1ccccc1
As to the kind of experiment: purified protein. In kind it is biochemical, Thermus thermophilus. The following applies: 2 mM NAD+, 10 mM potassium phosphate pH 8, 50 °C.

For “ALDHTt, aldehyde dehydrogenase from Thermus thermophilus (enzyme)”, in series [1], the stoichiometry N turned out to be 4.

B1: ALDHTt (Thermus thermophilus HB27) (protein)
chain: MRKAAGKYGNTLEFGHLVGGEEVLEGPLLERRNPSDREDVVARFPEADKDLVRKAALKAREAFAEWSRTPAPIRGQVLFNLVKILEREKPTLTRLMVREVGKTPKEAAGDVQEAIDTALFFASEGRRLYGQTVPSEMRDKELFTFRRPLGVVGIITAGNFPIAVPSWKLIPAVLTGNTVVWKPSEDAPTLSFVFAKLFEEAGLPPGVLNVVFGGGKGSTGQWMVELMDEGLFQKFAFTGSTQVGRWIGEVAGRNLIRPTLELGGKNPLVVMRDADLDLAVEGAWWSAFATGGQRCTSAGNILVDAPIYEEFKRRFLERVEATLVGNPLLHPEVTYGPFINERFFARWQEHYRVGEAEGARLLFGRGRITRENPYPRFLGDPEAGLYGWPTVWEVRPGTRLFTEEVFGPTINLVKVDGIEEAIAVANSTPYGLSSAIYTNHRHWAYLFKVGIRAGMTSINNATVGAEAHLPFGGVKASGNGGRESGIWVLEEYTYWHAVNEEYSGRLQLAQMDTGYVSPKAPTPWGEVLGL
notes: full-length, his-tagged (pET-22b(+)-ALDHTt), E. coli BL21(DE3); homotetramer with C-terminal tail
Turning to B1, the Km is 990 ± 240 µM in series [2], 9.2 µM in series [3], 380 ± 110 µM in series [4] and 1520 ± 510 µM in series [5]. In addition, the maximal velocity (Vmax) in series [2] was 0.027 µmol/min; in series [4] it was 0.047 µmol/min; in series [5] it was 0.0057 µmol/min. For the same molecule, the figures for the turnover number (kcat) in series [2], in series [4] and in series [5] were 5.71 s⁻¹, 12.1 ± 2.5 s⁻¹ and 1.46 ± 0.29 s⁻¹, respectively.
